Legend:
[1] = molecular target: T1, CC1H, major antigenic region of PLA2R (human, UniProt Q13018 21-367); assay: indirect ELISA, CC1h coated at 2 ug/mL, anti-human IgG Fc HRP
T1 construct: Secreted from CHO-S cells, purified on Ni column; also called CCIh
Procedure: (§1) 30 μL of CC1h (2 μg/mL, diluted with 1*PBS) was added to the reaction wells of the ELISA plate, and the plate was sealed and incubated at 4° C. overnight. The plate was washed with PBST for 3 times, and the liquid in the wells was discarded. 5% PBSM was added to block the ELISA plate at room temperature for 2 hours. The plate was washed with PBST for 3 times by adding 30 μL of Abs (diluted with 1*PBS) to each well of the ELISA plate, and the plate was incubated at room temperature for 60 min. The plate was washed with PBST for 3 times, 30 μL of anti-human IgG Fc HRP (diluted with 1% PBSM at a ratio of 1:8000) was added to each well, and incubated at room temperature for 60 min. TMB was added and the reaction was stopped with 2M blocking solution and the OD value was detected at 450 nm. Recombinant Ipilimumab (Sanyou Biopharmaceuticals Co., Ltd.) was used as a negative control. The test results were illustrated in Table 2 as well as FIG. 4 and FIG. 5.

CC1H-Biotin = molecular target: T2, CC1H-Biotin (human, UniProt Q13018 21-367, biotin by EZ-Link Sulfo-NHS-LC-Biotin, 1.80 mol Biotin/mol protein; sites not given); assay: BLI (Octet N1), CC1H-Biotin on SA sensor, antibody 76.6-8.5 nM
T2 construct: also called biotin-labeled CC1H
Procedure: Sartorius Octet® N1 molecular interaction instrument was used, the SA sensor (Sartorius, Octet® Streptavidin (SA) Biosensor, 18-5019) was selected.
The sensor was immersed in a PBSTB buffer (0.02% Tween-20 and 0.1% BSA were added in the PBS buffer) to be pre-wetted for 10 min or longer, and loaded onto the molecular interaction instrument.
The association constant (Ka), dissociation constant (Kd), and affinity constant (KD) were calculated and illustrated in Table 5 for details.

[2] = molecular target: T1, CC1H, major antigenic region of PLA2R; assay: indirect ELISA, CC1h coated at 2 µg/mL, anti-human IgG Fc HRP, ΔOD450
Procedure: The human anti-human PLA2R antibody after phage screening and expression in Example 2 was measured in terms of the ability of binding to CC1h using the indirect ELISA method.
as §1

Row | EC50 [1] [ng/mL] | Kd (CC1H-Biotin) [nM] | koff (CC1H-Biotin) [s⁻¹] | kon (CC1H-Biotin) [M⁻¹ s⁻¹] | binding result [2] | Binder
1 | 10.5 | 0.242 | 0.000125 | 516000 | – | B156 (antibody, human IgG4, kappa, also called P59397) heavy: not shown light: DIQLTQSPSSLSASIGDRVTITCRASQGISSFLAWYQQKPGKAPQLLIYAASTLQSGVPSRFSGSGSGTEFTLTISSLQPEDFATYYCQQFKIYPLTFGGGTKVEVKRTVAAPSVFIFPPSDEQLKSGTASVVCLLNNFYPREAKVQWKVDNALQSGNSQESVTEQDSKDSTYSLSSTLTLSKADYEKHKVYACEVTHQGLSSPVTKSFNRGEC
2 | 8.12 | < 0.001 | < 1e-07 | 654000 | – | B156 (IgG4SP) (antibody, IgG4SP (S228P in the hinge, already in the heavy chain entry); also called B156SP; P62304) heavy: not shown light: DIQLTQSPSSLSASIGDRVTITCRASQGISSFLAWYQQKPGKAPQLLIYAASTLQSGVPSRFSGSGSGTEFTLTISSLQPEDFATYYCQQFKIYPLTFGGGTKVEVKRTVAAPSVFIFPPSDEQLKSGTASVVCLLNNFYPREAKVQWKVDNALQSGNSQESVTEQDSKDSTYSLSSTLTLSKADYEKHKVYACEVTHQGLSSPVTKSFNRGEC
3 | – | – | – | – | no binding | B44 (antibody, human IgG4, kappa, V domains shown, also called P59386) VH: QVQLVQSGAEVKKPGASVKVSCKASGYTFTSYYMHWVRQAPGQGLEWMGIINPSGGSTSYAQKFQGRVTMTRDTSTSTVYMELSSLRSEDTAVYYCARGVSRRGAFDIWGQGTMVTVSS VL: DVVMTQSPLSLPVTPGEPASISCRSSQSLLHRSGYNYLDWYVQKPGQSPQLLIYLGSIRAVGVPDRFSGSASGTDFTLRISRVEAEDVGIYYCMQALQTPPAFGGGTKVEIKR
4 | – | – | – | – | no binding | B145 (antibody, human IgG4, kappa, V domains shown, also called P59396) VH: QLQLQESGPGLVKPSQTLSLTCTVSGGSISSGGYYWSWIRQHPGKGLEWIGYIYYSGSTYYNPSLKSRVTISVDTSKNQFSLKLSSVTAADTAVYYCARGKRDGYNYYFDYWGQGTLVTVSS VL: DIVMTQSPSSLSASVGDRVTITCQASQDISNYLNWYQQKPGKAPKLLIYDASSLESGVPSKFSGSRSGTDFTLTISSLQPEDSATYYCQQYRSYPITFGGGTKVEIKR
5 | 6.9 | 0.158 | 0.000102 | 644000 | – | A156 (antibody, human IgG4, kappa, also called P59378) heavy: not shown light: AIQLTQSPSSLSASVGDRVTITCRASQGISSYLAWYQQKPGKAPKLLIFAASLLQRGVPSRFSGSGFGTDFTLTISGLQPEDFATYFCQQFNTYPITFGGGTKVEIKRTVAAPSVFIFPPSDEQLKSGTASVVCLLNNFYPREAKVQWKVDNALQSGNSQESVTEQDSKDSTYSLSSTLTLSKADYEKHKVYACEVTHQGLSSPVTKSFNRGEC
6 | 14.7 | 0.456 | 0.000169 | 371000 | – | A156 (IgG4SP) (antibody, IgG4SP (S228P in the hinge, already in the heavy chain entry); also called A156SP; P62300) heavy: not shown light: AIQLTQSPSSLSASVGDRVTITCRASQGISSYLAWYQQKPGKAPKLLIFAASLLQRGVPSRFSGSGFGTDFTLTISGLQPEDFATYFCQQFNTYPITFGGGTKVEIKRTVAAPSVFIFPPSDEQLKSGTASVVCLLNNFYPREAKVQWKVDNALQSGNSQESVTEQDSKDSTYSLSSTLTLSKADYEKHKVYACEVTHQGLSSPVTKSFNRGEC
7 | 2.96 | 0.841 | 0.000512 | 608000 | – | B90 (antibody, human IgG4, kappa, also called P59391) heavy: not shown light: DIQMTQSPSILSASVGDRVTLTCRASQSISSWLAWYQQTPGKAPRVLIYEASTLEVGVPSRFSGSGSGTDFTLTISSLQPEDFGTYFCQQYHTDSRTFGQGTILEIKRTVAAPSVFIFPPSDEQLKSGTASVVCLLNNFYPREAKVQWKVDNALQSGNSQESVTEQDSKDSTYSLSSTLTLSKADYEKHKVYACEVTHQGLSSPVTKSFNRGEC
8 | 19.5 | 6.59 | 0.000639 | 97000 | – | B90 (IgG4SP) (antibody, IgG4SP (S228P in the hinge, already in the heavy chain entry); also called B90SP; P62303) heavy: not shown light: DIQMTQSPSILSASVGDRVTLTCRASQSISSWLAWYQQTPGKAPRVLIYEASTLEVGVPSRFSGSGSGTDFTLTISSLQPEDFGTYFCQQYHTDSRTFGQGTILEIKRTVAAPSVFIFPPSDEQLKSGTASVVCLLNNFYPREAKVQWKVDNALQSGNSQESVTEQDSKDSTYSLSSTLTLSKADYEKHKVYACEVTHQGLSSPVTKSFNRGEC
9 | 4.6 | 0.0178 | 1.89e-05 | 1.06e+06 | – | A61 (antibody, human IgG4, kappa, also called P59375) heavy: not shown light: DIVMTQSPLSLPVTLGQPASISCRSSQSLVKSDGNTYLSWFQQRPGQSPRRLIYKVSNRDSGVPDRFSGSGSGTDFTLKISRVEAEDVGVYYCMQGTHWPPTFGPGTKVDIKRTVAAPSVFIFPPSDEQLKSGTASVVCLLNNFYPREAKVQWKVDNALQSGNSQESVTEQDSKDSTYSLSSTLTLSKADYEKHKVYACEVTHQGLSSPVTKSFNRGEC
10 | 10.3 | 0.126 | 8.17e-05 | 648000 | – | A61 (IgG4SP) (antibody, IgG4SP (S228P in the hinge, already in the heavy chain entry); also called A61SP; P62298) heavy: not shown light: DIVMTQSPLSLPVTLGQPASISCRSSQSLVKSDGNTYLSWFQQRPGQSPRRLIYKVSNRDSGVPDRFSGSGSGTDFTLKISRVEAEDVGVYYCMQGTHWPPTFGPGTKVDIKRTVAAPSVFIFPPSDEQLKSGTASVVCLLNNFYPREAKVQWKVDNALQSGNSQESVTEQDSKDSTYSLSSTLTLSKADYEKHKVYACEVTHQGLSSPVTKSFNRGEC
11 | – | – | – | – | no binding | A22 (antibody, human IgG4, kappa, V domains shown, also called P59370) VH: EVQLVESGAEVKKPGSSVKVSCKASGGTFSSYAISWVRQAPGQGLEWMGGIIPIFGTANYAQKFQGRVTITADESTSTAYMELSSLRSEDTAVYYCAFTSGSYYYFDYWGQGTLVTVSS VL: not shown
